Biological target: T1, Biotin-labeled BatCoV-BtkY72 stem helix peptide (Bat SARS-related coronavirus BtKY72 …, UniProt A0A3Q8AKM0, biotin (position not given))
T1 construct: source: synthetic peptide, bought: GenScript
Assay: BLI
Conditions: both partners purified

Binder	binding result
S2P6 UCA VH M48I/S56H double mutant Fab (Fab, V domains shown, source: Expi293F, co-transfected, purified (IgG-CH1-XL beads)) VH: QVQLVQSGAEVKKPGASVKVSCKASGYTFTSYYMHWVRQAPGQGLEWIGIINPSGGHTSYAQKFQGRVTMTRDTSTSTVYMELSSLRSEDTAVYYCARGSPKGAFDYWGQGTLVTVSS VL: not shown	binds
S2P6 UCA VH Y32Q/M48I/S56H triple mutant Fab (Fab, V domains shown, source: Expi293F, co-transfected, purified (IgG-CH1-XL beads)) VH: QVQLVQSGAEVKKPGASVKVSCKASGYTFTSQYMHWVRQAPGQGLEWIGIINPSGGHTSYAQKFQGRVTMTRDTSTSTVYMELSSLRSEDTAVYYCARGSPKGAFDYWGQGTLVTVSS VL: not shown	binds
